Experimental data taken from US9969784B2, “Compositions and methods for modulation of immune function” (THE CHILDREN'S HOSPITAL OF PHILADELPHIA, priority 2013, dated 2018).

Legend:
Nedd4 = experiment: ubiquitin charging assay, Nedd4; type: biochemical; details: carried out for 30 seconds
Description: FIG. 8. Multiple Nedd4-family members likely share this mechanism of auto-inhibition and relief by Ndfip1 and Ndfip2. Nedd4 and Itch were expressed, purified and tested in the ubiquitin charging assay in the presence or absence of Ndfip1 or Ndfip2 as shown. Neither Itch nor Nedd4 were charged with ubiquitin in the assay when Ndfip1 or Ndfip2 were omitted from the assay. These assays were carried out for 30 seconds.
(§1) There are 9 members of the Nedd4-family of E3 ubiquitin ligases. These ligases are unusual in that there is a high degree of sequence similarity. All family members are composed of a HECT domain (the catalytic subunit), 2-4 WW domains, and a single C2 domain. Auto-inhibition of family members has been described by others, and different mechanisms of auto-inhibition have been proposed. […] We have devised a new way to look at auto-inhibition, namely by using a ubiquitin charging assay which is the initial event in activating Nedd4-family E3 ubiquitin ligases. Ubiquitin charging occurs when an E2 ubiquitin conjugating enzyme transfers ubiquitin to the catalytic cysteine of the Nedd4-family E3 ligase. This event is absolutely required for catalytic activity of the E3 ligase. […] We have determined that Ndfip1 and Ndfip2 are not required for Itch to bind the E2, as association between E2 and Itch occur in the absence of Ndfip1 and Ndfip2. […]

Itch = target: T1, Itch (Homo sapiens, UniProt Q96J02); experiment: ubiquitin charging assay (cell free), Itch; type: biochemical; details: E1, E2, ubiquitin, ATP and Mg++, then EDTA, Itch added with the substance
T1 construct: made in house
Description: FIGS. 1A-1D. Ndfip1 and Ndfip2 promote ubiquitin charging of Itch. FIG. 1A: E1, E2, ubiquitin, ATP and Mg++ were incubated together to prepare the E2 for ubiquitin transfer. EDTA was added to prevent further transfer of ubiquitin from E1 to E2. This ensures that only a single ubiquitin will be transferred. Itch was then added to the reaction with or without Ndfip1 or Ndfip2. […] FIG. 1C: Schematic diagram of auto-inhibition by Itch and activation by Ndfip1. FIG. 1D: Ndfip peptide mimics therapeutically activate
as §1, with “ligase.” for “ligase. This event is absolutely required for catalytic activity of the E3 ligase.”

Chain of Nedd4 (P46934 whole entry, species assumed): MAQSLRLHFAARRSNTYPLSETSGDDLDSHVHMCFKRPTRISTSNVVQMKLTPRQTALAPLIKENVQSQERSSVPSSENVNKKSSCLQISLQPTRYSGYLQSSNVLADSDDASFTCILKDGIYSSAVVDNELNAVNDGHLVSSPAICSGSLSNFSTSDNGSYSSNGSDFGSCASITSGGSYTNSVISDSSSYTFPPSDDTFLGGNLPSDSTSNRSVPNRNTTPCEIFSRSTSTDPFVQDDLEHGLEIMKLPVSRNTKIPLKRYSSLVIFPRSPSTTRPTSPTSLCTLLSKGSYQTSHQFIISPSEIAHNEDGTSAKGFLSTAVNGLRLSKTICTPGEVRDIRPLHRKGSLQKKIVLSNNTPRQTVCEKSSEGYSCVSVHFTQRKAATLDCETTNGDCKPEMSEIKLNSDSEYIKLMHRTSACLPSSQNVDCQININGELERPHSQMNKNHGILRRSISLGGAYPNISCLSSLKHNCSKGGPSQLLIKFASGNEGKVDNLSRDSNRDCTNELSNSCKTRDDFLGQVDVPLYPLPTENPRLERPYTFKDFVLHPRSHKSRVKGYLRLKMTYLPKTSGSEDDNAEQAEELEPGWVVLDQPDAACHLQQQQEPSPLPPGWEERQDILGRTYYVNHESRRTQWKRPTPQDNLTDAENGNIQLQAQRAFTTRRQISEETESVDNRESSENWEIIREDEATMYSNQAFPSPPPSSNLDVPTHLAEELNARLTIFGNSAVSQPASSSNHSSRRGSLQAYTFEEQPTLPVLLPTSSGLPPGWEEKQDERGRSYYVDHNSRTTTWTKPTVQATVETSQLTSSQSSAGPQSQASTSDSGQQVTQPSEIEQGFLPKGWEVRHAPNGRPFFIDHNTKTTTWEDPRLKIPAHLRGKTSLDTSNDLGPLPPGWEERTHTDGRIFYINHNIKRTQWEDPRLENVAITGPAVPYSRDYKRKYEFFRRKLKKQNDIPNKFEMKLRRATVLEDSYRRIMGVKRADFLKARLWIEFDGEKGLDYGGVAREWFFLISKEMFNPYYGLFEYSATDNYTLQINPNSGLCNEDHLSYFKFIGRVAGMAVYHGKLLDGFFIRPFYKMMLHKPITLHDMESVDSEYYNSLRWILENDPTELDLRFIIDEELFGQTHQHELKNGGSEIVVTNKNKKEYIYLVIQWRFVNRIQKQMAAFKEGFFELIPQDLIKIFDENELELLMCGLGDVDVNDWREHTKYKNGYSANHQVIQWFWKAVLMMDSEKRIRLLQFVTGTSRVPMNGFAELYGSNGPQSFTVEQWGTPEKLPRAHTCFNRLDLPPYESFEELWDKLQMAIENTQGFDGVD
T1 sequence (Q96J02 whole entry, species assumed): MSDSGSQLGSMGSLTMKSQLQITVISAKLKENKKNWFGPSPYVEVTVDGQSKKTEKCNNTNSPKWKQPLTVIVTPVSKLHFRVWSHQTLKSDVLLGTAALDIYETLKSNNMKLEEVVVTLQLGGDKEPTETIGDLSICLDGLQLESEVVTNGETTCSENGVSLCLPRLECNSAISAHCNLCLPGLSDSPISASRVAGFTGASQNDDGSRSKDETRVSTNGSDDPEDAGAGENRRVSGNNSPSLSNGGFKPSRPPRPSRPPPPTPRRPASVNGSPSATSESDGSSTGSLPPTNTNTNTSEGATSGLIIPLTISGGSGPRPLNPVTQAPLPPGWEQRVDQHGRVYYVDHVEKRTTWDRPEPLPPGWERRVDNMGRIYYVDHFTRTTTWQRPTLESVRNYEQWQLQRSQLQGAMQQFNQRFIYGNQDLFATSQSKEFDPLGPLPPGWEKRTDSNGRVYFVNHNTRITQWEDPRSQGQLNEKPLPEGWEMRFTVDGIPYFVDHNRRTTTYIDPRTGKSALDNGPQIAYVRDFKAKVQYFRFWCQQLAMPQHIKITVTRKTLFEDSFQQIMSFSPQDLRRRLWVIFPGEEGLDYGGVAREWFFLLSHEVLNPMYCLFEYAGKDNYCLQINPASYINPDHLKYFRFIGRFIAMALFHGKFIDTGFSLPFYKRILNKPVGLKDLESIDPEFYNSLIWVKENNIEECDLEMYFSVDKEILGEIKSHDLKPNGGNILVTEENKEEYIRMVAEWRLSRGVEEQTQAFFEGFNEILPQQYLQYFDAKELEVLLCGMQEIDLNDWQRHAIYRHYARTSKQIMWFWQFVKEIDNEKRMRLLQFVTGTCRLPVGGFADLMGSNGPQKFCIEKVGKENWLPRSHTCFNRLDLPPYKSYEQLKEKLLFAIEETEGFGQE

B1: Ndfip2: adaptor of the Ndfip family that relieves auto-inhibition of Nedd4-family E3 ligases (protein, UniProt Q9NV92 1-336, looked up)
NEDD4 family-interacting …: MARRRSQRVCASGPSMLNSARGAPELLRGTATNAEVSAAAAGATGSEELPPGDRGCRNGGGRGPAATTSSTGVAVGAEHGEDSLSRKPDPEPGRMDHHQPGTGRYQVLLNEEDNSESSAIEQPPTSNPAPQIVQAASSAPALETDSSPPPYSSITVEVPTTSDTEVYGEFYPVPPPYSVATSLPTYDEAEKAKAAAMAAAAAETSQRIQEEECPPRDDFSDADQLRVGNDGIFMLAFFMAFIFNWLGFCLSFCITNTIAGRYGAICGFGLSLIKWILIVRFSDYFTGYFNGQYWLWWIFLVLGLLLFFRGFVNYLKVRNMSESMAAAHRTRYFFLL
relief of Nedd4 auto-inhibition (Nedd4): auto-inhibition was relieved | ubiquitin charging of Itch (Itch): ubiquitin charging of Itch is observed
